This is an account of results in IntAct's records for PubMed 21718540.

Sequences and labels used below:
B1: TGF-beta receptor type-1 (Mus musculus), Q64729 (parent)
chain: MEAAAAAPRRPQLLIVLVAAATLLPGAKALQCFCHLCTKDNFTCETDGLCFVSVTETTDKVIHNSMCIAEIDLIPRDRPFVCAPSSKTGAVTTTYCCNQDHCNKIELPTTGPFSEKQSAGLGPVELAAVIAGPVCFVCIALMLMVYICHNRTVIHHRVPNEEDPSLDRPFISEGTTLKDLIYDMTTSGSGSGLPLLVQRTIARTIVLQESIGKGRFGEVWRGKWRGEEVAVKIFSSREERSWFREAEIYQTVMLRHENILGFIAADNKDNGTWTQLWLVSDYHEHGSLFDYLNRYTVTVEGMIKLALSTASGLAHLHMEIVGTQGKPAIAHRDLKSKNILVKKNGTCCIADLGLAVRHDSATDTIDIAPNHRVGTKRYMAPEVLDDSINMKHFESFKRADIYAMGLVFWEIARRCSIGGIHEDYQLPYYDLVPSDPSVEEMRKVVCEQKLRPNIPNRWQSCEALRVMAKIMRECWYANGAARLTALRIKKTLSQLSQQEGIKM
partner: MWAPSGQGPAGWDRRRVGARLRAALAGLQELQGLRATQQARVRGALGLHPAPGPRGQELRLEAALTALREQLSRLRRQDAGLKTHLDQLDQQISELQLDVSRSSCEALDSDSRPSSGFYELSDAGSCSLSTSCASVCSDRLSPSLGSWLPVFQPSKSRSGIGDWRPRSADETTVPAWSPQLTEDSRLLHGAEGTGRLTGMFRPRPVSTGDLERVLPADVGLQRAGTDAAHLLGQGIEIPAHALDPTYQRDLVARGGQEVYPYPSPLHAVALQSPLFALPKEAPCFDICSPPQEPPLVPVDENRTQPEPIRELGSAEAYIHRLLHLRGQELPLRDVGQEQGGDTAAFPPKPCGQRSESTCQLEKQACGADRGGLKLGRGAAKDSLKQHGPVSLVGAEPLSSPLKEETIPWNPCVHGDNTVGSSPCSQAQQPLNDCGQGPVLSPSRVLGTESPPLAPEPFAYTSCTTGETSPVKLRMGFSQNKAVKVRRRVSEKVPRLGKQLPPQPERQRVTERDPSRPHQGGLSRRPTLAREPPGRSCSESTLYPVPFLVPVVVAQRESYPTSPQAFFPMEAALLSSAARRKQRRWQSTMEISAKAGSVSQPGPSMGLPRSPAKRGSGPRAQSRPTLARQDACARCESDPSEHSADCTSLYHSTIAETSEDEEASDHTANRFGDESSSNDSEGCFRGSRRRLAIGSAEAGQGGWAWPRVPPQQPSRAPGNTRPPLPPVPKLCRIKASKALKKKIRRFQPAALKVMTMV

In the test the parent is B1. Particulars: with dact2_mouse Dact2, Q7TN08.
Regarding T204D, the “effect of a mutation on the interaction” value is “decreasing interaction”.
